Each block holds one substance with its values, some of them ahead of it.
Legend:
[1] = target: Aβ from A549 cell‐conditioned media (human (endogenous in A549)); assay: ELISA; single‐site ELISA for oligomerized Aβ (capture 4G8, detection 4G8‐biotin) against two‐site ELISA for total Aβ (capture 6E10, detection 4G8‐biotin); conditioned media, control or immunodepleted of HN or AChE, without or with ATP
[2] = target: Aβ from A549 cell‐conditioned media (human (endogenous in A549)); assay: ELISA; antibody (6E10 or 82E1 against Aβ, or anti‐HN, or anti‐AChE) bound to the wells; 300 μL conditioned medium (0.5 μg·μL^−1) added without or with ATP (100 μM, 1 mM); the partner held with the captured protein detected by its primary antibody
[3] = target: Aβ from H1299 cell‐conditioned media (human (endogenous in H1299)); assay: ELISA; single‐site ELISA for oligomerized Aβ (capture 4G8, detection 4G8‐biotin) against two‐site ELISA for total Aβ (capture 6E10, detection 4G8‐biotin); conditioned media, control or immunodepleted of HN or AChE, without or with ATP

Sequence of AChE from A549 cell‐conditioned media (P22303 32-614): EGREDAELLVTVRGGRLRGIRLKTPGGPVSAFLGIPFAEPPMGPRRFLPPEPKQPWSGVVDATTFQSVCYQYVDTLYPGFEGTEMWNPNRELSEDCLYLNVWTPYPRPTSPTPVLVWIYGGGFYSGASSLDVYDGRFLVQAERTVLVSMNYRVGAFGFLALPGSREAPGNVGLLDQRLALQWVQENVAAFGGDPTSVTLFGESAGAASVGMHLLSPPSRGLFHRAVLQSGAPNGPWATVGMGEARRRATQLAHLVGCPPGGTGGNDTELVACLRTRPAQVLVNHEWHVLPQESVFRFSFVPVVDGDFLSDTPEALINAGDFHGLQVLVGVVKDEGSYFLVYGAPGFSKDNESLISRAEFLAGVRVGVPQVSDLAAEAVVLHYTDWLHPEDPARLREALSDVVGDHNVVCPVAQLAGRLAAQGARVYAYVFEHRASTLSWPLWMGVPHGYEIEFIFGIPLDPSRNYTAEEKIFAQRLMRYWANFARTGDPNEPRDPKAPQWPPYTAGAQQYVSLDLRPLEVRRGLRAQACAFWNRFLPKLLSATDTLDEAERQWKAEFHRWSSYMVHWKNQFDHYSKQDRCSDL

percent oligomer of the total Aβ that remained after immunodepletion of AChE [1]: 47%
percent oligomer of the total Aβ that remained after immunodepletion of HN [1]: 86%
percent oligomer of total Aβ [1]: 63%
Substance: Aβ from A549 cell‐conditioned media (peptide)

fold increase in HN bound to Aβ with 100 μM ATP, relative to samples without added ATP [2]: 1.85 fold
fold increase in HN bound to Aβ with 1 mM ATP, relative to samples without added ATP [2]: 2.5 fold
Substance: HN from A549 cell‐conditioned media (peptide)

percent oligomer of the total Aβ that remained after immunodepletion of HN [3]: 69%
percent oligomer of total Aβ [3]: 48%
Substance: Aβ from H1299 cell‐conditioned media (peptide)

Substance: AChE from A549 cell‐conditioned media (from UniProt P22303 32-614) (enzyme)
fold decrease in AChE in a complex with Aβ with 100 μM ATP, relative to samples without added ATP [2]: 2.3 fold
